Substitutions are numbered along the chain they refer to. Names and notes keep the numbering of the source. Values joined by “and” are separate entries in the source; they are usually repeats but may differ in a detail not shown here. Equal entries are not always repeated.

From publication PMC8130709, “Structure and activation mechanism of the human liver-type glutaminase GLS2” (Biochimie, 2021) come the findings set out here.

Data set [1] concerns the molecule itself. As to the kind of experiment: crystal structure; ligand-free, sitting drop at 293 K, 0.1 M Tris pH 8.5, 0.2 M NaCl, 25% PEG 3350; space group H 3 2, two monomers in the asymmetric unit, tetramer generated by crystal symmetry.
Data set [2] concerns the molecule itself. As to the kind of experiment: SEC; analytical gel filtration of serial dilutions of the protein, in the absence of phosphate; Stokes radius against protein concentration.

B1: Human GLS2 glutaminase domain (Ile154-Gly479) (domain or fragment, UniProt Q9UI32-1 154-479, looked up)
chain: IPDFEEFTGHVDRIFEDVKELTGGKVAAYIPQLAKSNPDLWGVSLCTVDGQRHSVGHTKIPFCLQSCVKPLTYAISISTLGTDYVHKFVGKEPSGLRYNKLSLNEEGIPHNPMVNAGAIVVSSLIKMDCNKAEKFDFVLQYLNKMAGNEYMGFSNATFQSEKETGDRNYAIGYYLKEKKCFPKGVDMMAALDLYFQLCSVEVTCESGSVMAATLANGGICPITGESVLSAEAVRNTLSLMHSCGMYDFSGQFAFHVGLPAKSAVSGAILLVVPNVMGMMCLSPPLDKLGNSHRGTSFCQKLVSLFNFHNYDNLRHCARKLDPRREG
notes: liver-type glutaminase GLS2, human, glutaminase (catalytic) domain, residues Ile154-Gly479, common to the LGA and GAB isoforms; Cloned into pNIC28-Bsa4; also called human GLS2 catalytic domain construct; source: E. coli BL21(DE3)-R3-pRARE2, purified (Ni-NTA, Superdex 200 gel filtration, HiTrap Q HP)
As for B1, in data set [1], the “stoichiometry N” value is 4.

B2: Mouse GLS2 (Leu72-Val602) (enzyme, UniProt Q571F8 72-602, looked up)
chain: LGDLLFYTIAEGQERIPIHKFTTALKATGLQTSDPRLQDCMSKMQRMVQESSSGGLLDRELFQKCVSSNIVLLTQAFRKKFVIPDFEEFTGHVDRIFEDAKEPTGGKVAAYIPHLAKSNPDLWGVSLCTVDGQRHSVGHTKIPFCLQSCVKPLTYAISVSTLGTDYVHKFVGKEPSGLRYNKLSLNEEGIPHNPMVNAGAIVVSSLIKMDCNKAEKFDFVLQYLNKMAGNEFMGFSNATFQSEKETGDRNYAIGYYLKEKKCFPKGVDMMAALDLYFQLCSVEVTCESGSVMAATLANGGICPITGESVLSAEAVRNTLSLMHSCGMYDFSGQFAFHVGLPAKSAVSGAILLVVPNVMGMMCLSPPLDKLGNSQRGINFCQKLVSLFNFHNYDNLRHCARKLDPRREGGEVRNKTVVNLLFAAYSGDVSALRRFALSAMDMEQKDYDSRTALHVAAAEGHIEVVKFLIEACKVNPFVKDRWGNIPLDDAVQFNHLEVVKLLQDYHDSYLLSETQAEAAAETLSKENLESMV
notes: liver-type glutaminase GLS2, mouse, residues Leu72-Val602; also called liver-type glutaminase; wild type; source: recombinant, purified
As for B2, the “stoichiometry N” value in data set [2] is 2 and 4.

B3: Mouse GLS2 (Leu72-Val602) Lys253Ala mutant (enzyme, UniProt Q571F8 72-602, looked up)
chain: B2 chain with K182A
notes: also called K253A; source: recombinant, purified; point mutant generated by PCR (QuickChange II XL)
B3: in data set [2], the “stoichiometry N” value was found to be 4.

As usually defined, the stoichiometry N is a count of units in the complex or per binding partner.
